Assay results published in patent US20110306068A1 (HYGLOS INVEST, published 2011).

Target: T1, bacteriophage tail protein T4p12 (bacteriophage T4, UniProt P10930 1-527)
T1 sequence (looked up): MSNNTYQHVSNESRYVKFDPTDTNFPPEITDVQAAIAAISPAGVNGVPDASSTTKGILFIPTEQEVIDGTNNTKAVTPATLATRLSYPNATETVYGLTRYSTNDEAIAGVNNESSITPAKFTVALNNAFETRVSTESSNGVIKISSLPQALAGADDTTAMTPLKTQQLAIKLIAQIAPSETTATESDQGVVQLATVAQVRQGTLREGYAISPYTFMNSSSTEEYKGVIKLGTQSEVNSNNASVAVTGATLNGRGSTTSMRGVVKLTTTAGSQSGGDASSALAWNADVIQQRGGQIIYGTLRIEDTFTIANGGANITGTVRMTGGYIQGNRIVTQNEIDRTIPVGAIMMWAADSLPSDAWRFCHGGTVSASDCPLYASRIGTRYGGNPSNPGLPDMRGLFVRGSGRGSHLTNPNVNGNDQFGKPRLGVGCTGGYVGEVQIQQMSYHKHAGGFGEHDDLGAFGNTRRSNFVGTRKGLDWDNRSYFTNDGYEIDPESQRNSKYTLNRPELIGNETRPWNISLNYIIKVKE
Assay: column chromatography; Miro2p12 covalently immobilised on sepharose, control columns without LPS; T4p12 in fractions read by absorption at 280 nm
Protocol: The amount of the bacteriophage tail protein p12 was plotted against the fractions of the chromatography run. […] The arrow marks the application of p12 onto the column. The fractions F2-F5 were collected after the application. The amount of p12 (stated in mg) was detected by absorption measurement at 280 nm. The fraction volume was 1 ml for fractions F1-F4 and 2 ml for fraction F5. The dissolution of bound T4p12 protein in fraction F5 was affected by addition of 2 mM EDTA to the running buffer (20 mM Hepes, 150 mM NaCl, 0.1 mM CaCl₂, pH 7.5). The bacteriophage tail protein T4p12 was retained at the columns prior loaded with endotoxin, while it elutes without delay through the columns containing no endotoxin.
Bacteriophage tail protein Miro2p12 was immobilized to NHS-Sepharose (Amersham Pharmacia) (3.4 mg protein per 1 ml sepharose) and out of this 4 column were cast with a volume of 0.5 ml each. The columns were washed with each 3 ml sodium phosphate buffer (20 mM sodium phosphate, pH 12.0) and with each 3 ml regeneration buffer (20 mM Hepes, 150 mM NaCl, 2 mM EDTA, pH 7.5). […] The flow-through was collected three times in fractions of 1 ml and once of 2 ml and the concentrations of the bacteriophage tail protein T4p12 was determined via absorption measurement at 280 nm in these fractions (FIG. 5). […]

B1: bacteriophage tail protein Miro2p12 (other)
chain: MAQNNYNHYSDLAKYTIFDPTNTQWPVAIKDVQSALELIGSWARTDTGLPVASPTVAGVIRTATQAEVDAGTIGNAAVTPATLKSTVTRPEATTAVLGLTRYATNTEAAALTAGNRTITAAALGHVFKTVKAQENVDGTVRLTTAAQAQAGTDETTAVTPKRVVEMIGKFSVSPPSYTSATESNLGLVRVATQAQVAAGAVHDGYAVTPKTFMASKASDSVFGIVKFAKDSDVASATSNNLAVTPKSLQALKSTKDKYGLTRLSGSPTTDASLAAAATDAVFKTRRINGKTLDNDITITNNDINCYTRQESDGRYMPAGTRVGNVTWVEGQSWISRGATFTCNAPWEASSRLALNVNVKFERNNDGYDNRIFRFVVIVNGSQWGGELTLNIENTKGGRNGHSWRFEAYASSNFFFNNIPPNATVQIRPTEDSRIIFYDCMLTFCTNRP
notes: The only purification described is of the N-Strep form
B1: no binding (tested: 0.5 ml of 0.844 mg/ml T4p12 applied).
